Laboratory results taken from paper PMC2248732.

Experiments:
Hfqwt (Escherichia coli) = Hfqwt (Escherichia coli) (UniProt P0A6X3); assay: EMSA
Hfq65 (Escherichia coli) = Hfq65 (Escherichia coli) (UniProt P0A6X3); assay: EMSA
Hfq65 (Escherichia coli), sequence (P0A6X3 1-65): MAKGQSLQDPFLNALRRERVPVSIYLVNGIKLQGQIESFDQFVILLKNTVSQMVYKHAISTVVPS

Hfqwt (Escherichia coli), sequence (P0A6X3 whole entry): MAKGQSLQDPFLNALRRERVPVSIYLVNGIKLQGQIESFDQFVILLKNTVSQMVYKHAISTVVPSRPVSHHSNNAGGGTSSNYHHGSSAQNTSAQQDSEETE

RyhB was tested, and the Kd (Hfqwt (Escherichia coli)) was 16 nM and the Kd (Hfq65 (Escherichia coli)) was 35 nM.
